Assay: Histopathology (H&E) after two-cycle therapy
Format: in vivo, athymic nu/nu mice
Experimental: To further assess tissue-level toxicity at the conclusion of the two-cycle therapy study, kidneys, livers, spleens, and tumors from representative mice were collected and evaluated histologically using hematoxylin and eosin (H&E) staining. Microscopic pathology was assessed and recorded in the MHL Pathology Database (Zaphod) according to a standardized five-point grading scale (normal, minimal, mild, moderate, marked). Terminology and criteria for pathological findings were consistent with the INHAND (International Harmonization of Nomenclature and Diagnostic Criteria) guidelines developed by the Society of Toxicologic Pathology.
At the conclusion of the two-cycle therapy study, kidneys, livers, spleens, and tumors from representative mice were collected and processed for histological evaluation using hematoxylin and eosin (H&E) staining. Microscopic pathology was assessed and recorded in the MHL Pathology Database (Zaphod) using a standardized five-point ordinal grading system (normal, minimal, mild, moderate, marked). Terminology and diagnostic criteria were consistent with the International Harmonization of Nomenclature and Diagnostic Criteria (INHAND) guidelines established by the Society of Toxicologic Pathology (https://www.toxpath.org/inhand.asp)([57]).

SMILES: CSCC[C@H](NC(=O)CN1CCN(CC(=O)O)CCN(CC(=O)O)CCN(CC(=O)O)CC1)C(=O)N[C@H](C(=O)N[C@@H](CCCCNC(=O)CCCC(=O)N[C@H](Cc1ccccc1)C(=O)N[C@H]1CSSC[C@@H](C(=O)N[C@H](C(=O)O)[C@@H](C)O)NC(=O)[C@H]([C@@H](C)O)NC(=O)[C@H](CCCCN)NC(=O)[C@@H](Cc2c[nH]c3ccccc23)NC(=O)[C@H](Cc2ccc(O)cc2)NC1=O)C(=O)O)C(C)C [^225Ac-DOTA-MVK(ε)-TATE, metal not drawn]
- Glomerulopathy, percentage of mice with grade 0 (mouse, in vivo): 50%
- Glomerulopathy, percentage of mice with grade 1+ (mouse, in vivo): 50%
- Mice with mild, focal hepatocyte injury (mouse, in vivo): 1 of 6
- Tubular damage, percentage of mice with grade 0 (mouse, in vivo): 67%
- Tubular damage, percentage of mice with grade 1+ (mouse, in vivo): 17%
- Tubular damage, percentage of mice with grade 3+ (mouse, in vivo): 17%

SMILES: C[C@@H](O)[C@H](NC(=O)[C@@H]1CSSC[C@H](NC(=O)[C@@H](Cc2ccccc2)NC(=O)CN2CCN(CC(=O)O)CCN(CC(=O)O)CCN(CC(=O)O)CC2)C(=O)N[C@@H](Cc2ccc(O)cc2)C(=O)N[C@H](Cc2c[nH]c3ccccc23)C(=O)N[C@@H](CCCCN)C(=O)N[C@@H]([C@@H](C)O)C(=O)N1)C(=O)O [^225Ac-DOTA-TATE, metal not drawn, reference compound]
- Glomerulopathy, percentage of mice with grade 0 (mouse, in vivo): 17%
- Glomerulopathy, percentage of mice with grade 1+ (mouse, in vivo): 33%
- Glomerulopathy, percentage of mice with grade 2+ (mouse, in vivo): 17%
- Glomerulopathy, percentage of mice with grade 3+ (mouse, in vivo): 33%
- Mice with mild, focal hepatocyte injury (mouse, in vivo): 1 of 6
- Tubular damage, percentage of mice with grade 2+ (mouse, in vivo): 50%
- Tubular damage, percentage of mice with grade 3+ (mouse, in vivo): 33%
- Tubular damage, percentage of mice with grade 4+ (mouse, in vivo): 17%

SMILES: C[C@@H](O)[C@H](NC(=O)[C@@H]1CSSC[C@H](NC(=O)[C@@H](Cc2ccccc2)NC(=O)CCCC(=O)Nc2cc(COC(=O)N(C)CCNC(=O)CN3CCN(CC(=O)O)CCN(CC(=O)O)CCN(CC(=O)O)CC3)ccc2O[C@@H]2O[C@H](CO)[C@H](O)[C@H](O)[C@H]2O)C(=O)N[C@@H](Cc2ccc(O)cc2)C(=O)N[C@H](Cc2c[nH]c3ccccc23)C(=O)N[C@@H](CCCCN)C(=O)N[C@@H]([C@@H](C)O)C(=O)N1)C(=O)O [^225Ac-DOTA-β-Gal-TATE, metal not drawn]
- Tubular damage, percentage of mice with grade 0 (kidney H&E after two-cycle regimen, 0–4+ scale (normal, minimal, mild, moderate, marked), n = 6): 100%
- Glomerulopathy, percentage of mice with grade 0 (kidney H&E after two-cycle regimen, 0–4+ scale, n = 6): 67%

Reference: doi:10.1101/2025.09.11.675134, “Biodistribution-Driven Discovery Identifies a Glycosidase-Cleavable Linker to Reprogram Radiotheranostics” (bioRxiv, 2025)
